{
  "source": "patent US20030207791A1",
  "about": "“Materials and methods relating to the treatment of leukaemias” (priority 2000, published 2003)",
  "molecules": {"B1": {"name": "RAR: retinoic acid receptor α, wild type (protein)", "chain": "MASNSSSCPTPGGGHLNGYPVPPYAFFFPPMLGGLSPPGALTTLQHQLPVSGYSTPSPATIETQSSSSEEIVPSPPSPPPLPRIYKPCFVCQDKSSGYHYGVSACEGCKGFFRRSIQKNMVYTCHRDKNCIINKVTRNRCQYCRLQKCFEVGMSKESVRNDRNKKKKEVPKPECSESYTLTPEVGELIEKVRKAHQETFPALCQLGKYTTNNSSEQRVSLDIDLWDKFSELSTKCIIKTVEFAKQLPGFTTLTIADQITLLKAACLDILILRICTRYTPEQDTMTFSDGLTLNRTQMHNAGFGPLTDLVFAFANQLLPLEMDDAETGLLSAICLICGDRQDLEQPDRVDMLQEPLLEALKVYVRKRRPSRPHMFPKMLMKITDLRSISAKGAERVITLKMEIPGSMPPLIQEMLENSEGLDTLSGQPGGGGRDGGGLAPPPGSCSPSLSPSSNRSSPATHSP"}, "B2": {"name": "CC-RAR: fusion of the coiled coil region of PML to RAR (protein)", "chain": "SELKCDISAEIQQRQEELDAMTQALQALQEQDSAEGAVHAQMHAAVGQLGRARAETEELIRERVRQVVAHVRAQERELLEAVDARYQRDYEEMASRLGRLDAVLQRIRTGSALVQRMKCYASDQEVLDMHGFLRQALCRLRMASNSSSCPTPGGGHLNGYPVPPYAFFFPPMLGGLSPPGALTTLQHQLPVSGYSTPSPATIETQSSSSEEIVPSPPSPPPLPRIYKPCFVCQDKSSGYHYGVSACEGCKGFFRRSIQKNMVYTCHRDKNCIINKVTRNRCQYCRLQKCFEVGMSKESVRNDRNKKKKEVPKPECSESYTLTPEVGELIEKVRKAHQETFPALCQLGKYTTNNSSEQRVSLDIDLWDKFSELSTKCIIKTVEFAKQLPGFTTLTIADQITLLKAACLDILILRICTRYTPEQDTMTFSDGLTLNRTQMHNAGFGPLTDLVFAFANQLLPLEMDDAETGLLSAICLICGDRQDLEQPDRVDMLQEPLLEALKVYVRKRRPSRPHMFPKMLMKITDLRSISAKGAERVITLKMEIPGSMPPLIQEMLENSEGLDTLSGQPGGGGRDGGGLAPPPGSCSPSLSPSSNRSSPATHSP"}, "B3": {"name": "coiled coil of PML: coiled coil of PML including the additional amino-terminal region, expressed from retroviral vector (protein)", "chain": "MEPAPARSPRPQQDPARPQEPTMPPPETPSEGRQPSPSPSPTERAPASEEEFQFLRCQQCQAEAKCPKLLPCLHTLCSGCLEASGMQCPICQAPWPLGADTPALDNVFFESLQRRLSVYRQIVDAQAVCTRCKESADFWCFECEQLLCAKCFEAHQWFLKHEARPLAELRNQSVREFLDGTRKTNNIFCSNPNHRTPTLTSIYCRGCSKPLCCSCALLDSSHSELKCDISAEIQQRQEELDAMTQALQEQDSAFGAVHAQMHAAVGQLGRARAETEELIRERVRQVVAHVRAQERELLEAVDARYQRDYEEMASRLGRLDAVLQRIRTGSALVQRMKCYASDQEVLDMHGFLRQALCRLR"}},
  "key": {"[1]": {"target": "T1, GST-NCoR (Mus musculus, UniProt Q60974)", "T1 construct": "made in house", "T1 sequence (Q60974 1782-2453)": "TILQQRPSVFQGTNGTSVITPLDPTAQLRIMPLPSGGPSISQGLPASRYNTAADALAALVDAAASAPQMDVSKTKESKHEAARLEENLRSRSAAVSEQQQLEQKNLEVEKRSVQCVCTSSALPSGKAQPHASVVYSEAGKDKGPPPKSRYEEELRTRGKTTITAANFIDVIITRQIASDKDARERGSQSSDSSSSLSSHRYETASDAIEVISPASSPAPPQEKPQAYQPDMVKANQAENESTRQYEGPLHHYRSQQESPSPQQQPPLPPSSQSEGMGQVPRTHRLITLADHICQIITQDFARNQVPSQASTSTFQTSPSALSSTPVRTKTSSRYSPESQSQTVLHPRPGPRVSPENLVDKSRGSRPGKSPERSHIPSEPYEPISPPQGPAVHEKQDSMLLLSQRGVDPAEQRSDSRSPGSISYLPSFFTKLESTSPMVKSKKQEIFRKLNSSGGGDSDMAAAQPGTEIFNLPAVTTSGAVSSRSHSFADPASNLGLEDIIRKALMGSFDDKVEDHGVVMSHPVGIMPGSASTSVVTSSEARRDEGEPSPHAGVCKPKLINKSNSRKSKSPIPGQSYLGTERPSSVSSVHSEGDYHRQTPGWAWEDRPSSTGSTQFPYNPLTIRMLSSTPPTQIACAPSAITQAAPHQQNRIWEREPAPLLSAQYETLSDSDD", "test": "GST-NCoR pull-down assay with in vitro translated 35S labelled proteins", "assay_type": "binding", "description": "FIG. 1. Enhanced recruitment of NCoR by PML-RAR is due to the coiled coil region of PML. Increasing amounts of GST -NCoR (from 150 ng to 10 μg) coupled to agarose beads were incubated with the indicated in vitro translated, ^35-S labelled proteins. On the left, a schematic representation of the in vitro translated products, with the tripartite motif of PML highlighted (R, RING finger; B, B boxes; CC, coiled coil). The input lanes are loaded with the same amounts used in the pull-down experiments.\nRecruitment of the NCoR-HDAC complex is crucial for the transforming potential of PML-RAR. At low concentrations of RA (1-100 nM), the stability of the PML-RAR-NCoR complex is higher than that of the RAR-NCoR complex (Grignani et al., 1998; He et al., 1998; Lin et al., 1998). […] Pull-down assays were performed by incubation of in vitro translated, ^35S labelled PML-RAR or RAR with GST-NCoR coupled to agarose beads.\nGST-NCoR (1782-2453) or GST-NCoR (RDIII) purification and in vitro interaction experiments were performed as described, incubating the indicated amounts of GST-NCoR attached to a constant amount of glutathione-agarose beads in the presence of the appropriate ^35-S labelled, in vitro translated proteins(Gelmetti et al., 1998; Grignani et al., 1998; Zamir et al., 1996). The input lanes represent 100% of the total. Coimmunoprecipitation experiments were performed as described(Gelmetti et al., 1998), using extracts from transiently transfected COS-1 cells, or in vitro translated products."}, "[2]": {"test_system": "RARE-G5-TATA reporter (GAL4-VP16 driven transcription)", "test": "Transcriptional repression of GAL4-VP16 activation, RARE-G5-TATA reporter, transfected HeLa cells", "assay_type": "cell-based", "description": "FIG. 2. Role of the coiled coil of PML in the altered transcriptional properties of PML-RAR (A): Transcriptional repression by RAR and fusion proteins. Hela cells were co-transfected with the RARE-G5-TATA reporter in the absence (C) or presence of increasing amounts (50, 100, 250, 1000 ng) of the indicated expression vectors and then harvested 48 hours after transfection. Levels of expression of RAR and fusion proteins after transfection are shown in (C). (B) RARE and NCoR dependent transcriptional repression by RAR and fusion proteins. Hela cells were co-transfected with the RARE-G5-TATA or the G5-TATA, reporters and 1 μg of control expression vector (C), RAR (R), PML-RAR (P/R) and their respective AHT derivatives, as indicated. (D) RA sensitivity of RAR and fusion proteins. Cells were co-transfected with 500 ng of the indicated expression vectors. 24 hours after transfection, RA was added at the following concentrations: 1, 10, 100 nM, 1, 10 μM, and cells were harvested after additional 24 hours.\nTo test this hypothesis, the inventors devised an artificial, reporter system to measure transcriptional repression by RAR and chimeric proteins. The RARE-G5-TATA reporter construct has five GAL4 response elements fused to a minimal promoter region: upstream of the GAL4 sites, a RA responsive element (RARE) allows binding of RAR (or fusion proteins). […] RAR over-expression led to decrease of GAL4-VP16 activation, with 30-40% repression observed with the maximal amount of co-transfected RAR expression vector (1 μg, FIG. 2A), while it exerted no effect on the GAL4-VP16-mediated activation of a cognate promoter lacking the RARE (FIG. 2B). A RAR construct carrying the AHT mutation, which abrogates NCoR binding (Horlein et al., 1995), was unable to prevent activation of the RARE-G5-TATA promoter by GAL4-VP16 (FIG. 2B).\nNext, the inventors tested the transcriptional regulatory functions of PML-RAR (or derivatives). […] At the maximal concentration tested (1 μg), the inventors observed 80-90% repression with PML-RAR and 30-40% with RAR (FIG. 2A).\nTransient transfection of HeLa, NIH 3T3, SAOS and C33A cells was performed by calcium phosphate as described (Lillie and Green, 1989; Minucci et al., 1994). p53-/- MEFs were transiently transfected by lipofection as described (Pearson et al., 2000). Light units were normalized to expression of a co-transfected β-galactosidase expression plasmid. Results are presented as the mean+standard deviations of at least three independent experiments."}, "[3]": {"test_system": "U937 cells expressing PML-RAR under the control of an inducible promoter", "test": "Differentiation (CD14) of U937 cells with inducible PML-RAR treated with vitamin D and TGFβ", "assay_type": "cell-based", "settings": "for differentiated, CD14+ cells: cells expressing the coiled coil of PML, vitamin D and TGFβ", "from_the_text": "The cells were either uninduced (ctr column), or induced to express PML-RAR (PML-RAR column). Cells were transduced with retroviral vectors encoding the coiled coil of PML (RBCC) and GFP as a marker, or with retroviral vectors encoding GFP alone as a control (control). […] In cells expressing the coiled coil of PML (gated in the cytofluorimetric analysis based on the positivity for the GFP marker), PML-RAR was unable to block efficiently differentiation (from 90% to 70%). Levels of expression of PML-RAR were unchanged by expressing the coiled coil region of PML.\nRAR oligomerization through the coiled coil region of PML is required for its leukemogenic activity, and deletion of the PML coiled coil is sufficient to lead to loss of oncogenic potential (Minucci et al., 2000). Small molecule compounds able to disrupt PML-RAR oligomers would therefore be able to revert the leukemic phenotype."}},
  "data": [
    {"molecule": "B1", "values": [
      {"measurement": "higher amounts of GST-NCoR required to obtain significant binding, compared with PML-RAR", "setting": "[1]; GST-NCoR 150 ng to 10 μg", "value": "15-30 fold"},
      {"measurement": "amount of expression vector necessary to measure significant transcriptional repression", "setting": "[2]", "value": "at least 250 ng"},
      {"measurement": "repression of GAL4-VP16 activation", "setting": "[2]; maximal amount of expression vector, 1 μg", "value": "30-40%"}
    ]},
    {"molecule": "B2", "values": [
      {"measurement": "binding to GST-NCoR", "setting": "[1]; increasing amounts of GST-NCoR", "value": "same characteristics of binding as PML-RAR"},
      {"measurement": "capacity to repress GAL4-VP16 driven transcription", "setting": "[2]", "value": "as strongly as PML-RAR"}
    ]},
    {"molecule": "B3", "values": [
      {"measurement": "differentiated, CD14+ cells", "setting": "[3]; PML-RAR induced", "value": 70, "unit": "%"},
      {"measurement": "toxicity", "setting": "[3]; uninduced cells", "value": "did not notice appreciable toxicity"},
      {"measurement": "differentiated, CD14+ cells", "setting": "[3]; uninduced", "value": 90, "unit": "%"}
    ]}
  ]
}
